Here are results for 70 sequences from the domain aggregation screens of Martell et al. (2025).
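Also: 20 min heating vs room temperature control held 20 min.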

The nature of this series: soluble fraction after stress (log2 fold change); higher = more stays soluble; pooled small domains, quantitative proteomics. The following applies: stress: 75 degC.
“HMENVQLRNFAIKATEAGIIKLSSDQRTFMWASNQKKLMTVPFDEHPYSAMAQFFKTDEGLAVFKSIEKKL”: the “soluble fraction (log2)” value is -1.47. With “HMEPADALVAALVARGVSPSTARITVKQYPATRIQPQLEVFDYLVAQKDPKVSRNPPGFLLSAIRGEYA”, the “soluble fraction (log2)” value was -0.718. Regarding “HMEPAPELTPREQQVLARIALGMTDKAIAEELGVSHQTVRNHVARIYQKIKVHSRSQAVVWAREKGI”, the “soluble fraction (log2)” value is -1.47. As to “HMEPDEESVRLKEEILSRIDYWHTTMPYMGTRKLAAKLRTEGYAVGRKLVRTYMREMGIHAVYP”, the “soluble fraction (log2)” value is -0.103. Under “HMEPELSVDMKPLDGLLLAIKKELQAAQMYTRLARASADAEQKMVFEQLANMEKGHKARLEDIYT” stands -0.079; under “HMEPESTMIEISETLTNERLDRYLATKLPNVSRGGIQRLLREGNILVNGKKAKPTQHPVAGQKIEITWPNP”, -0.0291; under “HMEPEYIGELEKRIKKLKTHTYSSIDRLMKSISKKYKITTQVLHDDFKNKHNEIPDEWVKQF”, -0.126. “HMEPKIKQIVPNVVNYPVEDAKNVLVNSGLIVQIRGQGNIVYDQVPKGGAEVTRGTTVILDLNPPPGA”: the “soluble fraction (log2)” value is -0.0576. Take “HMEPKQIEVPNLVGISSAAARQTLSALGLHAVVKDSIWSETERIDTVLEQNPAGGALIKPEGTVYLRVSR”: the “soluble fraction (log2)” value is -0.0959. Regarding “HMEPLIRTLEEQIAEKIKNYRKGTRVYDAEHVDRWISQLPEEERMVVLTETNRLLEQNYVDQAKLME”, the “soluble fraction (log2)” value was -0.0452.

In the case of “HMEPMLEIFDAKIDLADVLAVESGLVRLRGGAEVTSPRVDVDAGARLELDSGARLNVERLSY”, the “soluble fraction (log2)” value is 0.155. Under “HMEPMTDQQILEGFAEFKRQNPDLMNRPATQAIVNLTLPGGTPISFRSGAGAAALNQYLESIGMRAGP” stands 0.0601; under “HMEPPAPAPDIPYPSRVTVRREVDGWPHYYGTWTRTPPVLGYEGIWLVGVSLDGKVQFVPVDDVTIA”, -1.17; under “HMEPREEFTFADLRANGLNGTAAAAGRRAALGAALGIGYGNAKQFLRRLNHYGVTRSEWEAALADLDE”, -0.752. For the sequence “HMEPSERYKALQSLLPDYAKRLKKKGVTRHQLFLEYRLTHPDGYARSRFGTYFQAYLALSHP”, the “soluble fraction (log2)” value was -2.32. Then “HMEPTLVVARDKDAKSPLVAKLMKELGVDAAPRVIVDDSVIGGAKLSHNHTEIDATYKTALINLYQAIT”, with 0.19. Regarding “HMEPVFSDPARQTLYQEVMELPAKYRVPLYLYYYEGYKVDEVGELLGLNASTVQTRLARARAKLKIQL”, the “soluble fraction (log2)” value is -0.489. On to “HMEQETVTVPDLVGKDVVAAQAELHEMGLSGKPDGTGTTVVSQFPVAGARVLKHTNVILYTED”, for which the “soluble fraction (log2)” value amounted to 0.296. “HMEQFRENIVRIYMEIDDYENGAKFLEMGNNRDASFYELAGDFYKYFGENELANENYDLAISA”: the “soluble fraction (log2)” value is -0.629. As to “HMEQIPEEYKKIYSLITDIPININDIAKKSLLELREVSSKLTMLELDGKVVKLPGNMYIRGDL”, the “soluble fraction (log2)” value was -0.195. As to “HMEQKELAPLVPQEDGSVKLTNLAGYSMREVAAALEGGNLSLIPIGSGTSWKQDPAPGTVLQPGNTVTVYF”, the “soluble fraction (log2)” value was -0.297. With “HMEQPLSLKLANNAFSRFWGNANPAEKDTQPNNSDIAKWVIEQSGGKITQTMADKIAQIIRPEWAA”, the “soluble fraction (log2)” value turned out to be 0.372.

Consider “HMEQSGDELKTWVDQAIAAYPEKVKEYQQGKKGLLALFIGEVMKRSKGTADPKKVNQLVTEALS”, for which the “soluble fraction (log2)” value was -0.164. For the sequence “HMEQTMNDMLKLVDLLPQNQQDIVRMRFYENMSFKEIAESNQISINTALGRMRYAILNLRKYAAERNL”, the “soluble fraction (log2)” value was -2.59. Under “HMEQVLDEEIIKSAVQKVIKDNPSAVSDYKAGKKTAFQFLIGKAMAELQGKGHPGKISELLEKE” stands 0.474; under “HMEQVQQIPIEELFPFKEHPFKVLDDEAMQRTVESVAQYGVLAPLIARPRPEGGYEIISGHRRQHAAELYR”, -0.0469; under “HMEQWVSIEVEPGIRLDVALTEATQKSRSFIQNLIAEQRVLVNGQPKKANYKVRPGDHVELNYPEPT”, -0.29. Then “HMEREKTYLMPDLIGRKAERVVPRLQASGFKVEDIRHVYYPGLEKGVIVRQSPPGGYPIQKRNLINLEVS”, with -0.581. For “HMERLKKYLDDVRTFLPGTNPKKVDEILREIESHVLERAEREHGEVNDNAVAMSIKEYGSPEEVAARYYEG”, the “soluble fraction (log2)” value was determined as 0.809. Consider “HMERLSNQVYAILKEMIADYRFNPGARINVEQIAKEVGASRTPVWEAVHRLVQEGLLENIPNRGVFML”, for which the “soluble fraction (log2)” value was -1.45. As for “HMERNAEDFAAKYQEIYQDMFRFALYTLKNRQEAEDVVSETVLDAWKGIEGLKNESAFSAWMFRILVNK”, the “soluble fraction (log2)” value amounted to 0.126.

Take “HMESADEESNALMYDGLLAMRGKRYEVALEFFDALVKHDPDFAEGWNKRATVLYLLGRYERSIADIKQVLA”: the “soluble fraction (log2)” value stood at 0.239. With “HMESAEQTGEELAARVNVLQTVSQALARELGREAAVEELADKMKMTVDEVKDIMKMAMDAMSM”, the “soluble fraction (log2)” value is 0.294. For the sequence “HMESAESRVDLIGMIGEAITDLRPAGTAQFGEERIDVVSESEWITEGSTVKVVSAEGYRHVVRVME”, the “soluble fraction (log2)” value is -0.358. On to “HMESENANVNRAMLTGIASMHAGQLETALNKFNEVIQLAPDFAEGWNKRATIFYLMKKFDRSVNDIAQTLK”, for which the “soluble fraction (log2)” value amounted to 0.0648.

For “HMESFGVAIKRLREAQGWTRADFLRQLGKTGYYMHATTLKRIEEGEQIAKVHEAVIISRLFGVTVEEMG”, the “soluble fraction (log2)” value is -3.1. Then “HMESGFEAVREVARHGSFANAAKALGVSGPAVSRQVKSLEERLGLVFFHRTTRMVTLTEAGQQLVDTLD”, with 0.0837. Under “HMESGNLIFTNAPIADVVNAIETRYGKKLQASNQTSDLQFTGIFKNTDEFSTVVKTIEIALGLQFEV” stands -1.67; under “HMESIEAGTFELDNKTSIDISEDEANLLNKMFEELTETNSKDMYGVMVADEAGFNEILEFAKENL”, 0.00321; under “HMESNWLTYAKRIQSIADTGMTFAVDDFDKERYQELADISSKMLADLSNIPIGRIENLLGPLGQ”, -1.11. Then “HMESPVNTLPEDQRAWYKALPPELSTKTAVEAGAGVGVSERTVKRLLSNQTFFINLQRGNYRKRH”, with -0.119. On to “HMESRMTYLQKTKLATENLDAKLIDHQQWVAEVLGEDYRGVYSDEYLRRAAKVFAIFVNNLDD”, for which the “soluble fraction (log2)” value was -2.53. Then “HMESRRVTLLLPYDKAGIADTLRREAAVLSLEYGEDGVTVEAVVKPELWGLVREYVQNDNPK”, with -0.135; and “HMESVTETFLTNLINRYIADKAGYIISYPSEYRIEVLYHGGQVLDYENLRKSINTYIPAHIGYKLVTI”, with 0.176. Under “HMESYDSEIKEVLDLAGKGRWEEAQTKADALREMAPNNSLVERLHGWVLQAAHQRREQALENDIRE” stands 0.432; under “HMESYTEEMLEKMSVSKLRTIARELQVDNMTREQIRFGKKTELIQNILEFTGREIENMQLYDK”, -0.0481. Then “HMESYWVVLRPMAAGTQIGANDLGYRSVALGAAAKNYLAASTNPIGSITRRRLVAGELLQGSSLTDDARA”, with -0.653; and “HMETADREILLREIREIINERVDYNKDITDDEMKELVMNTVFERSRQQYMSIQDKQEIIQAIFNSMR”, with 0.029. Turning to “HMETAESLLRRLIMLEDPAMQNAMYVLAVMLERGKQLVERAAKPHESGGILRVYEHKKSGDTFVVLDPR”, the “soluble fraction (log2)” value is -0.764. Under “HMETDGGDLTPRERDVLSLIGRGLRNAEAASALGLSEHTIAGHIKSVYSKLGISTRAEAALLASRLGL” stands -0.499. With “HMETGGLAQEAERELALLQEQIAHHEALYRKGTPEISDGAFDELFDRYQELADSLGVPADERIDRA”, the “soluble fraction (log2)” value turned out to be 0.155. Under “HMETIHEMVNRLSSEGFIKNEDGIWYLRDRRGDGTKWLKNPFFESTGEKDAFALIDHLKVNDELLSKLRK” stands -0.621; under “HMETINERVNSIIEREGHTVATFAKKIGVPWTTIKNIVSGRNAPSYDIMVKIINAVDWVDANYLVMG”, -2.59; under “HMETKIKFQIQTLDELNIRKVADWDAKAITTVKKGQILDVVDTVAAKNGSTPMYRLESGLYITASPKYVKK”, -1.16. For the sequence “HMETKPTELMLDVHKLRIGMFVYLDLGWMDHPFPLNRFKISTNAQIEQIKGLRLKQVKVMTALSDPASLL”, the “soluble fraction (log2)” value is -4.91. “HMETKVIVPKVTGMNSKSAINYLSARGLKYKAVPADSGKSFHVVDQYPKSGTKVSPHSTVYLYS”: the “soluble fraction (log2)” value turned out to be 0.114.

For the sequence “HMETLKEVPNLKGQQQEVAKQLLINAGLGVGKINIIEDSTIADGEVVTQSILPNTKVKKDTYVGFTVNKAP”, the “soluble fraction (log2)” value worked out at 0.0288. Then “HMETLKLRDSGKEVQSLQELLQRQGLSAPMNGIFDEATKSSVIAFQKANGLDADGIVGYKSWETLFTAG”, with 0.0141; and “HMETMSGTVKWFNTQKGYGFITGDDGAEYFAHQTQIKMDGFRTLDAGDIVEFDVRSEEKGLAAVNIVP”, with 0.781; and “HMETPDLTQLNPILDEYRGQKGAVIPVLQKAQKIYGFLPPEVLRRIAAGMRVPLSKIYGVATFYSQFY”, with 0.134. Then “HMETQAGELQDAIRDAIAALPPRTREVFLMSRERNLRYGEIAEALGISVKAVEANMSRALRQLREKLSPFL”, with -1.26; and “HMETVMYLRQIKRPQGIYLAIQESYYDSSKKQSRTRTIESIGYLDNLRKEYEDPIAFFSQKAAAMTSEKKK”, with -1.55. As for “HMETVQTGTVKVSNSLNVRSGAGTNYSVLGSLSNGAKVEIVGTSGSWYKIKYGSGYGYVSKDYVTVS”, the “soluble fraction (log2)” value was -0.0122. Then “HMETVSFNPDIAVIPDYRHVVILGETTKTIANKYDIPVDILKAANPGLGNNVTKGDRLRVPDKTKLQ”, with 0.00398. Under “HMETYHIQMKGDPSKGIVGFSQLDMVIDKIKRLETEKGIAPYELEVLDGDTMEKYSGEEFLTMHE” stands -0.0165; under “HMETYSGVERAAILVMYLERTLAKALLDHMNDEEVRRVGMAMASIDRVEGPDIERIVGDFVRELYEVS”, -0.642; under “HMETYTVPEVLGLTPEQAAQLPEVKDIFTLDVKEEGDFSDKPVGTIVRQSPTEGEHRKGDNLVIEVWLSV”, 0.166. Then “HMEVADAAQRKILQALQVQPLTVEQLSQELRTDTGDLLVSLSMMEITGLIRREAGNTFLAVFAPK”, with -1.66; and “HMEVEIPSREALLGLVQKHLKPVSFDEFVSHFKLGDERQQVGIKRRLRAMERDGQLVYTKANSYGLPDRM”, with 0.436; and “HMEVGVSGTVFNTDSLNVRKGPGTNFDTVTSLKRGSVVEVFEQSAVDGTVWGRIANGWVNMQYVSL”, with -0.707.
